{"source": "patent US12702697B2", "about": "“Compositions and methods for treatment of headache disorders and neuropathic pain” (Washington University, priority 2019, dated 2026)", "molecules": {"B1": {"name": "ld-IL2: Recombinant mouse IL2 (carrier-free; Biolegend), given as daily low-dose i.p. injection (protein, UniProt P04351 21-169, looked up)", "Interleukin-2": "APTSSSTSSSTAEAQQQQQQQQQQQQHLEQLLMDLQELLSRMENYRNLKLPRMLTFKFYLPKQATELKDLQCLEDELGPLRHVLDLTQSKSFQLEDAENFISNIRVTVVKLKGSDNTFECQFDDESATVVDFLRRWIAFCQSIISTSPQ"}}, "key": {"[1]": {"test_system": "Treg cells and CD3+ T cells in dura, TG and DRG", "test": "Immunohistochemistry of CD3+ T cells and EGFP+ Treg cells in dura, TG, DRG and cervical/medullary dorsal horn", "format": "in vivo, mouse", "procedure": "Tissue preparation, immunohistochemistry, and image analysis. Mice were euthanized with i.p. injection of barbiturate (200 mg/kg) and were transcardially perfused with warm 0.1 M phosphate buffered saline (pH 7.2) followed by cold 4% formaldehyde in 0.1 M phosphate buffer (pH 7.2) for fixation. Trigeminal ganglia, lumbar L4 DRG, and the tissues containing the cervical/medullary dorsal horn (from obex to C3 cervical spinal cord) were collected and sectioned at […] in the transverse plane, collected on Superfrost Plus glass slides in sequence and stored at […]\nThe dura was carefully dissected from the skull using forceps and stained as whole mount. T cells were identified by the rat anti-CD3 antibody (clone 17A2, 1:200; eBioscience, San Diego, CA), and Treg cells were identified with the chicken anti-EGFP (1:1000; AVES Lab, Tigard, OR) antibody in tissues from DEREG mice. […] To quantify CD31 T cells and Treg cells on the dura, we took random, nonoverlapping images (10 per mouse) in areas adjacent to the middle meningeal artery (MMA). To quantify T cells and Treg cells in TG, DRG, and cervical/medullary dorsal horn, all cells on individual sections were counted, and the number was multiplied by 4 to obtain the total number of cells per ganglion in each mouse. […] Representative images were adjusted for contrast and brightness using the same parameter within individual experiments. No other manipulations were made to the images. Image analysis was performed with experimenters blinded to the experimental groups."}, "[2]": {"test_system": "NTG-induced skin hypersensitivity in mice", "test": "Mouse model of chronic migraine (repetitive NTG): hindpaw and facial von Frey thresholds, cheek acetone test", "format": "in vivo", "procedure": "Mouse model of chronic migraine and drug treatments: After measuring baseline nociceptive responses, mice received repetitive intraperitoneal (i.p.) injections of NTG (10 mg/kg in saline with 1% propylene glycol) or vehicle (saline with 1% propylene glycol in saline, 10 mL/kg) every 2 days for 4 or more times as described previously (Pradhan A A, et al. PAIN 2014; 155:269-74). Nocifensive behaviors were measured 2 days after each injection (before the next treatment). NTG (SDM27; Copperhead Chemical, Tamaqua, PA) was freshly diluted from the stock (10% in propylene glycol, aliquoted in airtight glass vials and stored at 4° C.) with saline for every injection. Recombinant mouse IL2 (carrier-free; Biolegend, San Diego, CA) was freshly diluted from the stock (1 mg/mL aliquots at […]) every day. Each mouse received daily i.p. injection of […] IL2 in […] saline. The control mice received daily i.p. injections of […] saline. In Treg depletion experiment, mice received 1 i.p. injection of antibodies against CD25 ([…], BP0012; BioXcell, West Lebanon, NH11) or control IgG (BP0088; BioXcell). The antibody binds to CD25 on Treg cell membrane and depletes Treg cells through Fcg receptor III-mediated antibody-dependent cellular cytotoxicity and antibody-dependent cellular phagocytosis (Setiady Y Y, et al, Eur J Immunol 2010; 40:780-6). Note that on the days that the mouse behaviors were tested, NTG, IL2 and/or antibodies were always injected after completing the behavioral tests.\nResponses to mechanical stimuli on the hindpaw. Mice were habituated in individual clear plexiglass boxes (11×11×15 cm) for 1 to 2 hours. A series of calibrated von Frey filaments was used to apply mechanical stimuli to the plantar surface of the hindpaws. The up-down paradigm was used to determine the 50% withdrawal threshold. The thresholds for both hindpaws were averaged to yield a single value for each mouse.\nCheek acetone test. The acute nocifensive response to acetone-evoked evaporative cooling on mouse cheek was measured as previously described (Constandil L, et al. J Pain 2012; 13:579-89). The day before testing, both cheeks were shaved (6.5×12 mm) under brief anesthesia (2% isoflurane in 100% oxygen). On the test day, mice were habituated in individual plexiglass cylinders (11-cm diameter, 15-cm height) situated in front of 3-way mirrors for 1 to 2 hours. Acetone ([…]) was applied to the shaved cheeks and immediately returned mice to the cylinders. Time spent wiping the treated area was recorded by a video camera and quantified offline. For individual mice, acetone was applied alternatingly to both cheeks at 10-minute intervals, and the duration of behavior was averaged from 4 applications.\nWithdrawal responses to facial mechanical stimuli. The hair on mouse forehead (above and between 2 eyes) was shaved the day before testing. On the test day, the experimenter gently held the mouse on the palm with minimal restraint and applied the calibrated von Frey filament perpendicularly to the shaved skin, causing the filament to bend for 5 seconds. A positive response was determined by the following criteria as previously described: mouse vigorously stroked its face with the forepaw, head withdrawal from the stimulus, or head shaking (Elliott M B et al., Headache 2012; 52:966-84). The up-down paradigm was used to determine the 50% withdrawal threshold. […]"}, "[3]": {"test_system": "mTBI-induced memory deficit in mice", "test": "Novel object recognition (NOR) assay after mTBI", "format": "in vivo, mouse", "conditions": "ld-IL2 between day 6 and 12 post-mTBI", "procedure": "The novel object recognition (NOR) assay was used to test the effect of mTBI and ld-IL2 treatment on cognition. On the training day, mice were allowed to explore two identical objects in an arena for 10 minutes. The next day, mice were allowed to explore the same space in the presence of the familiar object and a novel object to test long-term recognition memory. […] After mTBI, mice spent similar amounts of time exploring the familiar and the novel object, indicating a deficit in recognition memory (FIG. 12, mTBI+saline). […] Remarkably, the effect of ld-IL2 on memory deficit lasted for at least 20 days after the cessation of treatment."}, "[4]": {"conditions": "15 days of ld-IL2, male DEREG mice"}, "[5]": {"conditions": "ld-IL2 pretreatment, female C57BL/6J"}}, "data": [{"molecule": "B1", "values": [{"measurement": "frequency of Treg cells among CD3+ cells in the dura", "setting": "[1]; 15 days of ld-IL2 (5% without)", "value": 20, "unit": "%"}, {"measurement": "increase of the number of EGFP+ Treg cells in the TG", "setting": "[1]; 15 days of ld-IL2, female DEREG mice", "value": 9, "unit": "fold"}, {"measurement": "increase in the density of EGFP+ Treg cells in the dura surrounding the MMA", "setting": "[1]; [4]", "value": 4, "unit": "fold"}, {"measurement": "increase in the number of EGFP+ Treg cells in DRG", "setting": "[1]; [4]", "value": 4, "unit": "fold"}, {"measurement": "basal hindpaw mechanical sensitivity", "setting": "[2]; 5 or 15 days of ld-IL2 injections, male C57BL/6J", "value": "not altered"}, {"measurement": "established persistent facial mechanical hypersensitivity resulting from repeated NTG injections", "setting": "[2]; after 7 to 9 days of IL2 injections, female Swiss Webster", "value": "completely reverse"}, {"measurement": "behavioral sensitization by subsequent NTG administrations", "setting": "[2]; continuous ld-IL2, female C57BL/6J, day 7-11", "value": "prevented"}, {"measurement": "baseline facial mechanical threshold", "setting": "[2]; daily ld-IL2, female Swiss Webster", "value": "not altered"}, {"measurement": "daily ld-IL2 treatments to completely reverse NTG-induced facial hypersensitivity, first session", "setting": "[2]; day 4-10, male C57BL/6J", "value": 7}, {"measurement": "slope of ld-IL2-induced reversal (change of threshold per day), first session", "setting": "[2]; day 5-11, male C57BL/6J", "value": "5.3±0.9"}, {"measurement": "acute reduction of facial mechanical threshold 3 hours after NTG", "setting": "[2]; day 11, after 7 ld-IL2 injections, female C57BL/6J", "value": "did not cause an acute reduction"}, {"measurement": "NTG injections needed after cessation of IL2 to lower the threshold to the NTG+saline level, first session", "setting": "[2]; day 11-13, male C57BL/6J", "value": 2, "unit": "NTG injections"}, {"measurement": "ld-IL2 injections required to completely reverse NTG-induced mechanical hypersensitivity, second session", "setting": "[2]; day 19-22, male C57BL/6J", "value": 4, "unit": "injections"}, {"measurement": "slope of ld-IL2-induced reversal (change of threshold per day), second session", "setting": "[2]; day 19-23, male C57BL/6J", "value": "10.3±1.3"}, {"measurement": "NTG injections needed after cessation of the second ld-IL2 treatment to reduce the threshold to the NTG+saline level", "setting": "[2]; day 23-27, male C57BL/6J", "value": 3, "unit": "NTG injections"}, {"measurement": "development of facial cold hypersensitivity", "setting": "[2]; delayed ld-IL2 started after 2 NTG injections, female Swiss Webster", "value": "blocked the development"}, {"measurement": "ld-IL2 injections sufficient to completely reverse the effect of repeated NTG", "setting": "[2]; female C57BL/6J", "value": 3, "unit": "injections"}, {"measurement": "NTG-induced hindpaw mechanical hypersensitivity", "setting": "[2]; ld-IL2 pretreatment starting 5 days before first NTG, male C57BL/6J", "value": "completely blocked"}, {"measurement": "NTG-induced facial cold hypersensitivity", "setting": "[2]; [5]", "value": "prevented the development"}, {"measurement": "basal responses to acetone-induced cooling", "setting": "[2]; [5]", "value": "did not change"}, {"measurement": "days of ld-IL2 treatment after which NTG-induced mechanical hypersensitivity started to reverse", "setting": "[2]; ld-IL2 started after 2 NTG injections, female Swiss Webster", "value": 5, "unit": "days"}, {"measurement": "effect of ld-IL2 on NTG-induced facial skin hypersensitivity in Treg-depleted mice", "setting": "[2]; mice given anti-CD25 antibody 3 days earlier, male C57BL/6J", "value": "completely abolished"}, {"measurement": "duration of the effect on memory deficit after cessation of treatment", "setting": "[3]", "value": "at least 20 days"}, {"measurement": "novel object recognition deficit after mTBI", "setting": "[3]", "value": "did not exhibit NOR deficit"}]}]}
